The test system of series [1] is skin epidermis and dermis. Description: Removal of S.C. by various methods and possible damage (FIG. 12). The source says: FIGS. 12A (panel a-d) and 12B depict removal of S.C. by various methods and possible damage. […] Even more damage to the dermis and epidermis are seen in skin treated by dermabrasion (panel d). In FIG. 12A, single headed arrow points to the epidermis and double headed arrows show clefting between epidermis and dermis.
Fractional laser treatment lead to unavoidable heat damage on the side of the holds that each radiated beam made.

The subject of a further series is human skin. Description: Franz cell diffusion apparatus assay, ETA-treated vs control skin (Example 3). It is filed as in vitro ADME. Conditions: ETA-treated human skin compared to non-treated control, 24 hours. As for the experimental part:
Permeation experiments with Franz diffusion cells were performed using human skin. The Franz diffusion cells were made of glass with a contact area of 1.35 cm^2, consisting of a donor compartment and a receptor compartment. The skin was mounted between the cell compartments and 2 O-ring shaped glasses were used to position the skin epidermis side-up and dermis side-down. The two cell compartments were held together with a clamp. […] It was kept at 37° C. on a heated plate. After 30 minutes of equilibration of the skin with the receptor solution, 200 μl of the drug solution was applied in the donor compartment with a pipet. The donor compartment was then covered with parafilm to prevent evaporation of the solvent. The receptor solution was continuously stirred using a spinning bar magnet at 200 rpm. Receptor solution samples, 0.2 ml aliquots, were withdrawn through the sampling port of the receptor compartment at various time intervals. The cells were refilled with a same amount of receptor solution to keep the volume of receptor solution constant during the experiment. The experiments were run for 24 hours. The fluorescent intensities collected from receptor compartments from normal and desquamated skin were compared over time using a spectrophotometer. […]

The subject of series [2] is human skin explants or xenograted human skin. Description: Confocal imaging of fluorescent dye distribution in ETA-desquamated skin (Example 2). Conditions: for skin permeability after removal of S.C. by ETA: ETA 100 μg/mL treated vs untreated skin. The procedure:
Human skin samples were fixed in 10% formaldehyde overnight and then embedded in paraffin. Samples were cut using a microtome to a thickness of 6 μM and baked on slides for 1 hour in a dry heat incubator at 58° C. Nuclei and eosinophillic structures were visualized by hematoxylin and eosin staining, respectively. The hematoxylin stains nuclei blue and eosins stains eosinophillic structures different shades of red. Histological images were taken with an inverted microscope.
The skin was either subjected to no treatment or application of ETA at 100 μg/mL.
To image the distribution of each dye in the human skin, human skin specimens were collected at 6, 12, 18 and 24 hours. Ordinary skin with intact S.C. and desquamated skin using ETA (methods previously described) were used. Frozen sections of human skin specimens were cut using a microtome to a thickness of 7 μM and DAPI was used for counter staining. Skin imaging was carried out at room temperature using Nikon confocal microscope equipped with NIS-Elements AR 3.10 software.

Series [3] relates to Stratum Corneum of human skin explants. Description: ETA desquamation of Stratum Corneum on human skin explants, H&E histology (Example 1). As for the experimental part:
ETA was mixed with 10 mM PIPES at pH 6.5, 10 mM HEPES at pH 7.4, or 10 mM Tris at pH 8.0, at concentrations ranging from 25-1000 μg/mL. Each condition was also done separately as controls. These solutions were applied to human skin explants, obtained and prepared as follows. Human skin specimens were obtained from consenting patients undergoing abdominoplasty. Under a sterile condition, the tissue was placed and washed in a 70% ethanol solution and cold PBS. Fat layers were removed from the tissue, leaving a millimeter of dermis and an intact epidermis. The tissue was then cut into 10 mm×10 mm pieces and placed on gels composed of keratinocyte media supplemented with Human Keratinocyte Growth Supplement purchased from Invitrogen, and mixed in a 1:1 ratio with 2% agarose. The samples were stored at 37° C. in 5% CO2.
ETA solutions were incubated on top of the skin for 4 hours. Each buffer condition was also done separately without the presence of ETA as controls. […] That is to say, Stratum Corneum layer was peeled off mechanically with sterile gauze.
Histological images were taken with an inverted microscope.

Series [4] concerns xenograft human skin in SCID mice. Description: Recovery of S.C. after ETA, serial confocal DAPI staining. It is filed as in vivo. The source says:
FIG. 11 panels a-i depict DAPI staining on nuclei in an S.C. removed area compared to control (intact S.C.), highlighting the recovery of the S.C. layer over time after the application of ETA on human xenografted skin on mice. […] Day 7-9 and 10-11 (panels e, f) show even less nuclei.
Regarding healing kinetics, using a xenograft human skin in SCID mice model, the healing of removed S.C. was completed within 2 weeks as determined by serial confocal observation of DAPI staining on xenograft skin. With confocal microscope and DAPI staining, the recovery of the S.C. can be observed, as described. DAPI is known to be a fluorescent stain that can pass through the cell membrane and bind strongly to A-T rich regions in DNA, thereby staining the nuclei of cells. With intact S.C., the signal from DAPI cannot be detected by confocal microscope due to the refraction of light against the S.C. as well as the limitation of the depth of light penetration. On the other hand, desquamated skin can produce DAPI signals within cells. DAPI can stain the nuclei of epidermis as long as epidermis remains desquamated. Under inhalation anesthesia, xenografted mouse was taped down on the observatory plates and the xenografted skin was imaged using confocal microscopy. DAPI signal was obtained at baseline and every other day after ETA-mediated desquamation occurred.

The subject of series [5] is Stratum Corneum, human skin explant model. Description: ETA desquamation after acetone and/or thioglycolate cream pre-treatment (Example 4). The source says: FIG. 7 panels a-d depict decreased desquamation time for the removal of S.C. by ETA on the human skin specimen(s) following thioglycolate cream pre-treatment. Samples either received no treatment (panel a), ETA only (panel b), treated with thioglycolate cream only (panel c), ETA and thioglycolate cream (panel d). The depictions are of live confocal imaging of skin. Images are focusing on the horizontal plane at the most superficial levels. Lighter areas depict areas where DAPI dye has entered the epidermis and staining on the Nuclei of the cells. […] Natural folds in skin surface produce “waves” of staining in these planar-focused live images. The waves of staining are seen in panel b, with about 20%-30% of the area stained, and about 90%-95% of the area stained in panel d (“unstained” regions in panel d are skin folds). However when S.C. is present (panels a and c), DAPI cannot penetrate cells, and is shielded from cellular uptake by the S.C., staining is seen to be less than about 10% in panels a and c.
In order to decrease the incubation time of ETA, the following conditions were additionally evaluated:
Studies were carried out in a human skin explant model using surgical abdominal skin specimens.
Lipid Extraction: The S.C. layer consists of lipids and therefore, acetone was selected as a pre-treatment to dissolve or at least disrupt the lipid structure of the S.C.
Protein Denaturation: The S.C. layer also contains keratin proteins. Keratins can be broken down by thioglycolate, which breaks down rigid disulfide bonds. Samples were pre-treated with thioglycolate cream to break down the keratin layer of the S.C. As a result, the incubation time of ETA was shortened (FIG. 7).
Combination Lipid Extraction and Protein Denaturation: With the pre-treatment of acetone and a thioglycolate cream, separation of S.C. started as early as 2 to 2.5 hours.

In the next series the test system is human skin explants. Description: Injected versus topically applied ETA, damage after 24 hours (Example 6). The procedure: FIG. 10 panels a-h depict the effect of injected and topically applied ETA in a series of concentrations between 5 and 1000 ug/mL after 24 hours.
Damage caused by intra-dermal injection of ETA was compared to normal control skin and topically applied ETA control. A very high concentration of ETA (500 μg/mL) was intra-dermally injected into human skin explants (prepared as described in Example 1) and observed after 24 hours. […] In contrast, methods of the invention topically apply ETA only to the outside surface of skin.

[6] abbreviates: intra-dermally injected, ETA 500 μg/mL, 24 hours.

For `O=C(O)CO` [glycololic acid, glycolic acid], the “epidermal or dermal injury” value in series [1] (20% for 1-3 minutes) is “epidermal damage and clefting of the dermal-epidermal junction (DEJ)”. Further, the “injury by chemical peeling” value in series [1] was “uncontrolled or unavoidable additional injury to epidermis”.
Turning to `O=C(O)c1ccccc1O` [salicylic acid], the “injury by chemical peeling” value in series [1] was “uncontrolled or unavoidable additional injury to epidermis”. Also, the “epidermal or dermal injury” value in series [1] (topical 30%) was “damage to the epidermis”.
For `O=C1OC2(c3ccc(O)cc3Oc3cc(O)ccc32)c2ccccc21` [fluorescein], the “skin permeability, fluorescence in receptor compartment” value in the series on human skin is “increase in skin permeability”.
As to `CCNc1cc2[s+]c3cc(N(CC)CC)ccc3nc2c2ccccc12.[Cl-]` [EtNBS], the “skin permeability after removal of S.C. by ETA” value in series [2] was “substantially increased”. Moreover, in series [2] (toxin treated skin), the “penetration of the dye at 12 hours” value was “penetrating past the epidermis” and the “penetration of the dye at 24 hours” value is recorded as “penetrated further”.
With “human recombinant insulin: FITC tagged human recombinant insulin (5000 Da)”, the “skin permeability after removal of S.C. by ETA” value in series [2] was “substantially increased”. In series [2] (toxin treated skin), the “time to penetration of the dye” value is not above 6 h, the “penetration of the dye at 12 hours” value is recorded as “some dye penetration” and the “penetration of the dye at 24 hours” value was “extensively into the dermis”. In addition, the “penetration of the dye at 24 hours” value in series [2] (toxin treated skin, listed as FITC-insulin) is reported as “deep penetration of the dye”.

B1: ETA: protease that cleaves the extracellular portion of desmoglein-1 (Dsg1); Staphylococcus aureus, SEQ ID NO: 01/02 (protein, listed as Staphylococcus aureus)
chain: MNNSKIISKVLLSLSLFTVGASAFVIQDELMQKNHAKAEVSAEEIKKHEEKWNKYYGVNAFNLPKELFSKVDEKDRQKYPYNTIGNVFVKGQTSATGVLIGKNTVLTNRHIAKFANGDPSKVSFRPSINTDDNGNTETPYGEYEVKEILQEPFGAGVDLALIRLKPDQNGVSLGDKISPAKIGTSNDLKDGDKLELIGYPFDHKVNQMHRSEIELTTLSRGLRYYGFTSVPGNSGSGIFNSNGELVGIHSSKVSHLDREHQINYGVGIGNY
B1: in series [3] (10 mM Tris buffer pH 8.0), the “effect of buffer on desquamation speed” value is “no effect”. Also, the “time to remove the S.C.” value in series [3] (ETA 50 μg/mL) was not above 12 h. Further, the “S.C. removal, histology (FIG. 1 panel d)” value in series [3] (ETA 50 μg/mL, serial time points up to 12 hours) was “sub-corneal cleavage and the complete removal of the S.C”. The “incubation time at which efficacy was achieved” value in series [3] (ETA 1000 μg/mL, buffered pH 6.5 solution) is “about 3 hours”. Also, the “time to desquamation of the Stratum Corneum” value in series [3] (ETA between 5 and 25 μg/mL, topical) was not above 24 h. Besides, in series [3] (ETA between 5 and 25 μg/mL, within 24 hours), the “damage to the rest of the epidermis or the dermis” value is “without damaging the rest of the epidermis or the dermis”. The “time to completely remove the S.C.” value in series [3] (pH 6.5) was 4 h. Also, the “desquamation (FIG. 2 panel d)” value in series [3] (pH 6.5 PIPES buffer, 4 hours) is on record as “total desquamation”. Also, the “desquamation (FIG. 2 panel b)” value in series [3] (pH 7.4 HEPES buffer, 4 hours) is reported as “some desquamation”. In addition, the “epidermal or dermal injury” value in series [1] (controlled removal of S.C. using ETA) is “no epidermal or dermal injury”. Also, the “DAPI staining of nuclei” value in series [4] (Day 12 after ETA) is given as “no nuclei”; in series [4] (Days 1-3 after ETA) it was “significant DAPI staining”. In series [4] (after ETA-mediated desquamation), the “time to completed healing of removed S.C.” value is given as not above 2 weeks. In series [4] (after application of ETA), the “re-formation of intact Stratum Corneum complete” value was not above 15 days. In addition, the incubation usually expected in series [5] (ETA 50 μg/mL, without pre-treatment) lay within 4 to 8 h. Moreover, the “area stained by DAPI (FIG. 7 panel d)” value in series [5] (ETA and thioglycolate cream) was 90%-95%. The “area stained by DAPI (FIG. 7 panel b)” value in series [5] (ETA only) is 20%-30%. Besides, the “change of reaction time after ETA application” value in series [5] (acetone pre-treatment) is reported as “slight decrease in reaction time”. The “time at which separation of S.C. started” value in series [5] (pre-treatment of acetone and a thioglycolate cream) lay within 2 to 2.5 h. In addition, the “time of almost complete removal of S.C.” value in series [5] (pre-treatment of acetone and a thioglycolate cream, ETA 50 μg/mL) was 3 h. Further, the “change of incubation time of ETA” value in series [5] (thioglycolate cream pre-treatment) is recorded as “shortened”. In the series on human skin explants (setting [6]), the “damage to the epidermis or underlying dermis” value was “no serious damage”. Also, in the series with human skin explants (setting [6]), the exfoliation result is recorded as “more wide spread exfoliation”. The histological effect entry in the series on human skin explants (intradermal injection, ETA 5 μg/mL, 24 hours) is on record as “desquamation”; in the series on human skin explants (intradermal injection, ETA 50 μg/mL, 24 hours) it was “desquamation”; with human skin explants (intradermal injection, ETA 500 μg/mL, 24 hours) it was “clefting at the dermal-epidermal junction (DEJ)”; in the series on human skin explants (intradermal injection, ETA 1000 μg/mL, 24 hours) it was “clefting at the dermal-epidermal junction (DEJ)”; in the series with human skin explants (topical application, ETA 5 μg/mL, 24 hours), “no change”; in the series on human skin explants (topical application, ETA 50 μg/mL, 24 hours) it was “desquamation”. For the same molecule, the histological effect result was “desquamation” in the series with human skin explants (topical application, ETA 500 μg/mL, 24 hours) and “desquamation” with human skin explants (topical application, ETA 1000 μg/mL, 24 hours). In addition, in the series with human skin explants (topical ETA 50 μg/mL for 24 hours), the “effect compared with intra-dermal injection” value is “much more modest effect”.

Values taken from patent US11045520B2, “Compositions and methods for topical delivery of pharmaceutical agents” (priority 2016, dated 2021).
